Residue numbers refer to the chain shown, from its start. Numbers in names are those of the source. Values belong to the binder of their own block, whether it stands above or below them.
Columns and labels:
Human 4-1BB ECD-AFH [1] = target: T1, Human 4-1BB ECD-AFH (human); assay: SPR (Biacore 8K), construct captured, monovalent ECD
T1 construct: entry includes the tags; also called FOB003; HUMAN CD137 ECD-AVI-FLAG-HIS
Method: (§1) Mouse anti-human IgG (GE, BR-1008-39) at 25 μg/ml in 10 mM sodium acetate pH 5.0 was immobilized at a density of ˜10,000 response units (RU) onto each flow cell of a CM5 research-grade sensor chip (GE) by standard amine coupling chemistry. Each binding protein at approximately 100 nM in HBS-EP+ with 0.2% BSA buffer was captured in a flow cell with the immobilized anti-human IgG at a flow rate of 10 μL/min for 20 seconds, leaving one flow cell surface unmodified as the reference. Using a single-cycle kinetics mode, five different concentrations of ECD were sequentially injected through each flow cell at 30 μL/min for 300 seconds followed by a 600 second dissociation period. Regeneration was achieved by injection of 3 M MgCl₂ at a flow rate of 30 μL/min for 30 seconds followed by HBS-EP+ with 0.2% BSA buffer stabilization for 1 min.
(§2) Sensorgrams obtained from kinetic SPR measurements were analyzed by the double subtraction method. The signal from the reference flow cell was subtracted from the analyte binding response obtained from flow cells with immobilized or captured ligands. Buffer reference responses were then averaged from multiple injections. The averaged buffer reference responses were then subtracted from analyte binding responses, and the final double-referenced data were analyzed with Biacore T200 Evaluation software (2.0, GE), globally fitting data to derive kinetic parameters. All sensorgrams were fitted using a simple one-to-one binding model.
(§3) Using the BIACORE 8K SPR system, the affinity of these constructs for human and cyno 4-1BB, and human and cyno OX40 ECD, were determined using the methods described above. Monovalent binding affinity was determined by capturing the ADAPTIR™ bispecific construct on the chip and injecting monovalent ECD of the target at multiple concentrations.

Human OX40 ECD-AFH [2] = target: T2, Human OX40 ECD-AFH (human); assay: as above
T2 construct: ECD'; entry includes the C-terminal tags; also called OXF003; Human OX40 ECD-avi-flag-his
T2 chain: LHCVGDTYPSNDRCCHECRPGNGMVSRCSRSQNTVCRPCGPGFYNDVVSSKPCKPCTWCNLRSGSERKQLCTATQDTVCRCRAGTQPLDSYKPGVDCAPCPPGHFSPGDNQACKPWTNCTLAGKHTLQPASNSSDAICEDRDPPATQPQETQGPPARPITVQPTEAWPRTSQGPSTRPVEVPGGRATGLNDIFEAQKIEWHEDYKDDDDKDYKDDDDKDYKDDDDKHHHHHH
Method: as §1, §2, §3

Cyno OX40-AFH = target: T3, Cyno OX40-AFH (cynomolgus monkey); assay: as above
T3 construct: entry includes the tags; also called OXF005; cyno OX40 ECD
T3 chain: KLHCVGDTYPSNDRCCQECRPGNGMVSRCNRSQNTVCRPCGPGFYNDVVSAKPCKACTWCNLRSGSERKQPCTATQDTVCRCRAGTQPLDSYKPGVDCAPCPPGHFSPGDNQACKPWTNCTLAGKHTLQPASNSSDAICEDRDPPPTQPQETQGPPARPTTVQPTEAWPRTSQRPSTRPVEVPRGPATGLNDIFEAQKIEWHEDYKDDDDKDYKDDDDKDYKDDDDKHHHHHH
Method: as §1, §2, §3

Cyno 4-1BB ECD-AFH = target: T4, Cyno 4-1BB ECD-AFH (cynomolgus monkey); assay: as above
T4 construct: entry includes the tags; also called FOB004; Cyno CD137 ECD-avi-flag-his
T4 chain: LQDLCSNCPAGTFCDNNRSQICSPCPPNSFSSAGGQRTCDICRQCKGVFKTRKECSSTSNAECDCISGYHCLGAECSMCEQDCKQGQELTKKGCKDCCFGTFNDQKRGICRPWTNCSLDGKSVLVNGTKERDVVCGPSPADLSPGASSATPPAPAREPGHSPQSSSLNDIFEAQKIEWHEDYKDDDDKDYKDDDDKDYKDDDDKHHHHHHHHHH
Method: as §1, §2, §3

Human 4-1BB ECD-AFH [3] = target: T1, Human 4-1BB ECD-AFH; assay: SPR, construct captured, monomeric ECD as analyte
Method: as §1, §2
(§4) Protein was produced by transient expression, purified by ProA chromatography and prep SEC.
Target sequence in this assay (chain, as listed by the source limits assumed): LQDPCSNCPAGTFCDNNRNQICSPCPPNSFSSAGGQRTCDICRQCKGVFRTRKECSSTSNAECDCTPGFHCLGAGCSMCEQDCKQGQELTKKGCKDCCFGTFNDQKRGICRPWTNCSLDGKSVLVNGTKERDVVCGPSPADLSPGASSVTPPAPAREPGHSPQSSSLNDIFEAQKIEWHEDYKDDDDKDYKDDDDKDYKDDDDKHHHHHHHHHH

Human OX40 ECD-AFH [4] = target: T2, Human OX40 ECD-AFH; assay: SPR, construct captured, monomeric ECD as analyte
Method: as §1, §2, §4

Full-length Human 4-1BB = target: T5, Full-length Human 4-1BB (human, UniProt Q07011 24-255); assay: flow cytometry, Jurkat cells expressing human 4-1BB
T5 construct: also called FOB005; CD137
Method: (§5) FIGS. 12A-12D show the binding of anti-4-1BB x anti-OX40 constructs, with additional humanization in 4-1BB and altered orientations of binding domains, human (12A) or cynomolgus (12C) 4-1BB-expressing Jurkat cells or human (12B) or cynomolgus (12D) OX40-expressing CHOK1SV cells. Serial dilutions of ADAPTIR™ constructs were incubated with transfected cells and subsequently labelled with a fluorescently-conjugated goat-a-human Fc secondary antibody. […] (See Example 19.)
(§6) Binding studies were performed using the flow cytometry-based staining procedures described above.

Full-length Cyno OX40 = target: T6, Full-length Cyno OX40 (cynomolgus monkey, UniProt P43489 29-277 (human entry)); assay: flow cytometry on CHOK1SV cells transfected with cynomolgus OX40, goat anti-human Fc secondary antibody, MFI (Mean)
T6 construct: on CHO-K1SV cells; also called OXF004; cynomolgus OX40
T6 chain: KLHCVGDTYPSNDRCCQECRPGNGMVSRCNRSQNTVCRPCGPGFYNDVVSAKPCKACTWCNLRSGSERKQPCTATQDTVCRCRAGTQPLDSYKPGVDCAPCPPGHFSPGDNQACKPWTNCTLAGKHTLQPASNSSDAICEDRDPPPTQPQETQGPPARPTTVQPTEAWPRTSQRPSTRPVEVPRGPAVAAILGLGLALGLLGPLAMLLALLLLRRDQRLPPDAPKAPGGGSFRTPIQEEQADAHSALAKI
Method: as §5, §6

Kd (Human 4-1BB ECD-AFH [1]): 16 nM
koff (Human 4-1BB ECD-AFH [1]): 0.0043 s⁻¹
kon (Human 4-1BB ECD-AFH [1]): 270000 M⁻¹ s⁻¹
Kd (Human OX40 ECD-AFH [2]): < 1 nM
koff (Human OX40 ECD-AFH [2]): 0.00027 s⁻¹
kon (Human OX40 ECD-AFH [2]): 1.1e+06 M⁻¹ s⁻¹
Kd (Cyno OX40-AFH): < 1 nM
koff (Cyno OX40-AFH): 0.00019 s⁻¹
kon (Cyno OX40-AFH): 1.5e+06 M⁻¹ s⁻¹
Kd (Cyno 4-1BB ECD-AFH): 92 nM
koff (Cyno 4-1BB ECD-AFH): 0.0092 s⁻¹
kon (Cyno 4-1BB ECD-AFH): 100000 M⁻¹ s⁻¹
Kd (Human 4-1BB ECD-AFH [3]): 15 nM
koff (Human 4-1BB ECD-AFH [3]): 0.0045 s⁻¹
kon (Human 4-1BB ECD-AFH [3]): 290000 M⁻¹ s⁻¹
Kd (Human OX40 ECD-AFH [4]): 0.5 nM
koff (Human OX40 ECD-AFH [4]): 0.00031 s⁻¹
kon (Human OX40 ECD-AFH [4]): 680000 M⁻¹ s⁻¹
EC50 (Full-length Human 4-1BB): 0.23 nM
max MFI (Full-length Human 4-1BB): 4710 MFI
EC50 (read off the curve) (Full-length Cyno OX40): ~1 nM
B1: FXX01066 (bispecific antibody)
chain: EVQLVQSGAEVKKPGASVKVSCKASGYTFTSYWMNWVRQAPGQGLEWMGNIYPSGGSTNYAQKFQGRVTMTVDTSTSTVYMELSSLRSEDTAVYYCASFSDGYYAYAMDYWGQGTLVTVSSGGGGSGGGGSGGGGSGGGGSEIVMTQSPATLSLSPGERATLSCRASQSVSSYLNWYQQKPGQAPRLLIYYASRRHTGIPARFSGSGSGTDFTLTISSLQPEDFAVYYCQQGYNLPYTFGQGTKVEIKEPKSSDKTHTCPPCPAPPAAAPSVFLFPPKPKDTLMISRTPEVTCVVVDVSHEDPEVKFNWYVDGVEVHNAKTKPREEQYNSTYRVVSVLTVLHQDWLNGKEYKCAVSNKALPAPIEKTISKAKGQPREPQVYTLPPSRDELTKNQVSLTCLVKGFYPSDIAVEWESNGQPENNYKTTPPVLDSDGSFFLYSKLTVDKSRWQQGNVFSCSVMHEALHNHYTQKSLSLSPGGGGSPSSYVLTQPPSVSVAPGQTARITCGGNNIGSKSVNWFQQKPGQAPVLVVYDDSGRPSGIPERFSGSTSGNTATLTISRVEAGDEADYYCQVWDSSSDHVVFGGGTKLTVLGGGGSGGGGSGGGGSGGGGSQVQLVESGGGVVQPGRSLRLSCAASGFTLSYYGMHWVRQAPGKGLEWVAAISHDGSDKYYADSVKGRFTISRDNSKNTLYLQMNSLRAEDTAVYYCSNDQFDPWGQGTLVTVSSR
notes: ADAPTIR scFv-Fc-scFv, anti-4-1BB (VH-VL) N-terminal, anti-OX40 C-terminal, PAA (del) Fc; also called FX01066

Kd (Human 4-1BB ECD-AFH [1]): 16 nM
koff (Human 4-1BB ECD-AFH [1]): 0.0047 s⁻¹
kon (Human 4-1BB ECD-AFH [1]): 290000 M⁻¹ s⁻¹
Kd (Human OX40 ECD-AFH [2]): < 1 nM
koff (Human OX40 ECD-AFH [2]): 0.00025 s⁻¹
kon (Human OX40 ECD-AFH [2]): 1e+06 M⁻¹ s⁻¹
Kd (Cyno OX40-AFH): < 1 nM
koff (Cyno OX40-AFH): 0.00023 s⁻¹
kon (Cyno OX40-AFH): 1.1e+06 M⁻¹ s⁻¹
Kd (Cyno 4-1BB ECD-AFH): 75 nM
koff (Cyno 4-1BB ECD-AFH): 0.0074 s⁻¹
kon (Cyno 4-1BB ECD-AFH): 98000 M⁻¹ s⁻¹
Kd (Human 4-1BB ECD-AFH [3]): 15 nM
koff (Human 4-1BB ECD-AFH [3]): 0.0043 s⁻¹
kon (Human 4-1BB ECD-AFH [3]): 290000 M⁻¹ s⁻¹
Kd (Human OX40 ECD-AFH [4]): 0.4 nM
koff (Human OX40 ECD-AFH [4]): 0.0003 s⁻¹
kon (Human OX40 ECD-AFH [4]): 710000 M⁻¹ s⁻¹
EC50 (Full-length Human 4-1BB): 0.18 nM
max MFI (Full-length Human 4-1BB): 4850 MFI
EC50 (read off the curve) (Full-length Cyno OX40): ~0.8 nM
B2: FXX01102 (bispecific antibody)
chain: B1 chain with Q500K, T690R
notes: ADAPTIR anti-4-1BB (HL) x anti-OX40 with Q17K and T86R; PAA (del) Fc; also called FX01102

Kd (Human 4-1BB ECD-AFH [1]): 16 nM
koff (Human 4-1BB ECD-AFH [1]): 0.0041 s⁻¹
kon (Human 4-1BB ECD-AFH [1]): 260000 M⁻¹ s⁻¹
Kd (Human OX40 ECD-AFH [2]): < 1 nM
koff (Human OX40 ECD-AFH [2]): 0.0003 s⁻¹
kon (Human OX40 ECD-AFH [2]): 980000 M⁻¹ s⁻¹
Kd (Cyno OX40-AFH): < 1 nM
koff (Cyno OX40-AFH): 0.00021 s⁻¹
kon (Cyno OX40-AFH): 1.1e+06 M⁻¹ s⁻¹
Kd (Cyno 4-1BB ECD-AFH): 72 nM
koff (Cyno 4-1BB ECD-AFH): 0.0074 s⁻¹
kon (Cyno 4-1BB ECD-AFH): 100000 M⁻¹ s⁻¹
B3: FXX01115 (bispecific antibody)
chain: B1 chain with I541V, E543N, T690R
notes: ADAPTIR anti-4-1BB x anti-OX40, pI variant; PAA (del) Fc
